Assay results as given in patent US20250270315A1 (ELPISCIENCE SUZHOU BIOPHARMA, published 2025).
Residue numbers refer to the chain shown, from its start. Values belong to the binder of their own block, whether it stands above or below them.

Legend:
[1] = biological target: T1, full length human SIRPα v1 with a small beta-gal fragment (ED) fused to its C-terminal, expressed in K562 … (human, UniProt P78324 31-504); assay: cell-based or functional assay
[2] = biological target: T2, full length human SIRPα v1 stably expressed on CHOK1 or 293F cells (human, UniProt P78324 31-504); assay: FACS, CHOK1-human SIRPα v1 cells
T2 construct: whole, on cells; also called CHOK1-human SIRPα v1; CHOK1-hSIRPα v1
T2 sequence (P78324 31-504): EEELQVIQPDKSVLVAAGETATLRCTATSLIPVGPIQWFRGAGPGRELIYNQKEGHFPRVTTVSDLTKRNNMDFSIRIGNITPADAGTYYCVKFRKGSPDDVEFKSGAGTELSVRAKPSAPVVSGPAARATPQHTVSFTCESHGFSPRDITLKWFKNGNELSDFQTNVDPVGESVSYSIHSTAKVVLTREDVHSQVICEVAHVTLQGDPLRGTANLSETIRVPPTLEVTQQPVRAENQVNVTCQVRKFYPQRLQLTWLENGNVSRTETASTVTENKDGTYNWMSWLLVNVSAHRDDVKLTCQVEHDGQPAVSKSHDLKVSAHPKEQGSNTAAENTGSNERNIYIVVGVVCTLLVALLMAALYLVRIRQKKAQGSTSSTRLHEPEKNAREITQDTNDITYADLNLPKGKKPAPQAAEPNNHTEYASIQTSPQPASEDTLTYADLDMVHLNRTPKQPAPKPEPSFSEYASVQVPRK
Description: (§1) Species cross reactivity of the purified hybridoma antibodies against human, cyno and mouse SIRPα was determined by FACS assay using CHOK1 cells stably expressing human SIRPα v1, CHOK 1-cyno SIRPα and C57BL/6 mouse SIRPα. Briefly the antibodies were incubated with 2×10⁵ target cells at 4° C. for 1 hour. After washing, fluorescence labeled anti-mouse IgG 2nd antibody (Life Technologies) was added and incubated at 4° C. for 1 hour. Geometric median fluorescence intensity was detected and EC₅₀ was calculated using GraphPad Prism9.0. Other than HEFLB, all antibodies as tested can bind to cyno SIRPα. None of tested antibodies can bind to C57BL/6 mouse SIRPα.

[3] = biological target: T3, Fc tagged human SIRPα v1 ECD recombinant protein (human, UniProt P78324 31-370); assay: ELISA, coated Fc tagged human SIRPα v1 ECD
T3 construct: range 1-370; also called hFc tagged human SIRPα v1 ECD; not shown: human IgG Fc (hFc) tag
T3 sequence (P78324 31-370 limits assumed): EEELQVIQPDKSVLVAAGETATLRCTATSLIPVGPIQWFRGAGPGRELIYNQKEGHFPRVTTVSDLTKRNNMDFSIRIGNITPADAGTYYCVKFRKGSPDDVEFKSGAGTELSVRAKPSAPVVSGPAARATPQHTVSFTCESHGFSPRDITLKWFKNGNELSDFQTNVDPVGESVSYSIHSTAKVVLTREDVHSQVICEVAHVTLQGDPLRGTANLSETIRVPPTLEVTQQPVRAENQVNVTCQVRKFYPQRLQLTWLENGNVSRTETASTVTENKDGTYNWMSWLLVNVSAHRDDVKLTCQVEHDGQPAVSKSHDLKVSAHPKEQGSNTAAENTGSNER
Description: (§2) Binding specificity of the purified hybridoma antibodies against human SIRPα variants was detected by ELISA assay using recombinant proteins of Fc tagged human SIRPα v1 ECD and human SIRPα v2 ECD. Briefly the antibodies were incubated with ELISA microplate coated antigens at 37° C. for 1 hour. After washing, horseradish peroxidase (HRP) labeled anti-mouse IgG 2nd Ab (Sigma) was added and incubated at 37° C. for 1 hour. Then, 100 μl/well of TMB solution (Biotechnology) was added. After incubation for 15 minutes at room temperature, the reaction was stopped by the addition of 50 ul of 1N HCl. OD 450 nm was read and EC₅₀ was calculated using GraphPad Prism9.0. Other than HEFLB, all antibodies as tested bind to both human SIRPα v1 and human SIRPα v2. HEFLB can only bind to human SIRPα v1 but not human SIRPα v2.

[4] = biological target: T4, Fc tagged human SIRPα v2 ECD recombinant protein (human); assay: ELISA, coated Fc tagged human SIRPα v2 ECD
T4 construct: range 1-369; also called hFc tagged human SIRPα v2 ECD
Description: as §2

[5] = biological target: T5, C57BL/6 mouse SIRPα stably expressed on CHOK1 cells (C57BL/6 mouse, UniProt P97797 32-513); assay: FACS, CHOK1-C57BL/6 mouse SIRPα cells, MFI at 100 nM
T5 construct: whole, on cells; also called CHOK1-C57BL/6 mouse SIRPα
T5 sequence (looked up): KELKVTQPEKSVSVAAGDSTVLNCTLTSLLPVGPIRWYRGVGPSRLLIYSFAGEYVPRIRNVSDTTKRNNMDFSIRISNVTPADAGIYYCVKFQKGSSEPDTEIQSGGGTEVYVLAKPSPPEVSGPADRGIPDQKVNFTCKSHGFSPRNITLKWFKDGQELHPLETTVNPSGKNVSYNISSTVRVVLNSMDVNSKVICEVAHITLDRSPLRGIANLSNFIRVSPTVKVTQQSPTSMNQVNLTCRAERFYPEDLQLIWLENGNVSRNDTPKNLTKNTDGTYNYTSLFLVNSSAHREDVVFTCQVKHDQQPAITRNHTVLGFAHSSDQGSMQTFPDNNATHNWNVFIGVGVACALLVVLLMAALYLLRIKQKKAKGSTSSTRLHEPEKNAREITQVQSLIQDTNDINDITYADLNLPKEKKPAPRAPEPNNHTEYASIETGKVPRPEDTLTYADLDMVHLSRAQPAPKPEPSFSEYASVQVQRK
Description: as §1

[6] = biological target: T6, human SIRPα v1 ECD recombinant protein (tag not given) (human, UniProt P78324 31-373); assay: competitive ELISA, biotin human SIRPα v1 ECD on coated human CD47 ECD
T6 construct: extracellular domain; also called biotin labeled soluble human SIRPα v1 ECD recombinant protein; ELISA microplate coated human SIRPα v1 ECD
T6 sequence (P78324 31-373): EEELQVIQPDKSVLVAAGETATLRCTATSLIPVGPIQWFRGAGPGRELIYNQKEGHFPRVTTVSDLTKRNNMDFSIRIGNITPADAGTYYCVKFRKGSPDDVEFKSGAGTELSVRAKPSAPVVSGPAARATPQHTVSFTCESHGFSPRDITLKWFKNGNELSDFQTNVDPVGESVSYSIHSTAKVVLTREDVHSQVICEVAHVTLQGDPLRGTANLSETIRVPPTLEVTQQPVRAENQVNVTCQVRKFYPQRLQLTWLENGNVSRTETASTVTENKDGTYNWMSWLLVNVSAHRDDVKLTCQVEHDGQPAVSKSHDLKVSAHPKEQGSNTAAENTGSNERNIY
Description: Competitive ELISA assay was used to determine whether the purified hybridoma antibodies can block CD47 and SIRPα interaction. Briefly, antibody and biotin labeled soluble human SIRPα v1 ECD recombinant protein were co-incubated with ELISA microplate coated human CD47 ECD recombinant protein. After washing, HRP labeled streptavidin (HRP-SA, Sigma) was added and incubated at 37° C. for 1 hour. Then, 100 μl/well of TMB solution (Biotechnology) was added. After incubation for 15 minutes at room temperature, the reaction was stopped by the addition of 50 μl of 1N HCl. OD 450 nm was read. The blocking ratios were determined by blockade of biotin labeled human SIRPα v1 ECD recombinant protein binding to ELISA microplate coated human CD47 ECD recombinant protein. Other than 005, all antibodies as tested can block human CD47 and human SIRPα v1 interaction.

[7] = biological target: T1, full length human SIRPα v1 with a small …; assay: cell-based or functional assay; remark: listed apart in the source
[8] = biological target: T7, human SIRPγ stably expressed on 293F cells (human, UniProt Q9P1W8 29-387); assay: FACS, 293F-hSIRPγ cells
T7 construct: whole, on cells
T7 sequence (Q9P1W8 29-387): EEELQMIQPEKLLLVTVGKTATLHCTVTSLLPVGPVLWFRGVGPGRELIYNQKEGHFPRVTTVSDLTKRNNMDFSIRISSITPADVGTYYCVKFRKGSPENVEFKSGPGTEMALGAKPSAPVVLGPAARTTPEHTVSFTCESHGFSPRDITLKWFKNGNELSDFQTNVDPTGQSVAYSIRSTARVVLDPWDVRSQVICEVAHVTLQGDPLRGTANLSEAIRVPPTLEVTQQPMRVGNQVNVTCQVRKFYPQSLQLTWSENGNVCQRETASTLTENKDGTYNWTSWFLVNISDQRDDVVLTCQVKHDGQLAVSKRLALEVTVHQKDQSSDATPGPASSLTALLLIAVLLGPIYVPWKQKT
Description: (§3) All the humanized antibodies as tested were confirmed to retain the similar activity as the parental antibody of 025c to bind to SIRP family members.

[9] = biological target: T2, full length human SIRPα v1 stably …; assay: FACS, CHOK1-hSIRPα v1 cells
Description: as §3

[10] = biological target: Human SIRPα v1 (antigen of the Octet and Biacore affinity measurements) (human, UniProt P78324 31-370, limits assumed); assay: SPR (Biacore), 1:1 binding model
Chain of Human SIRPα v1 (antigen of the Octet and Biacore affinity measurements) (P78324 31-370 limits assumed): as the sequence (P78324 31-370 limits assumed) above
Description: The humanized antibodies were characterized for binding affinity against human SIRPα v1, human SIRPα v2 using Surface Plasmon Resonance technology (Biacore system). The association and dissociation curves were fit with 1:1 binding model, and the Ka/Kd/KD values for each antibody were calculated.

[11] = biological target: T6, human SIRPα v1 ECD recombinant protein …; assay: competitive ELISA, mFc-CD47 ECD on coated SIRPα v1 ECD
Description: (§4) Competitive ELISA assay was used to determine whether the purified chimeric antibodies can block CD47 and SIRPα interaction. Briefly, antibody and mFc tagged human CD47 ECD recombinant protein were co-incubated with ELISA microplate coated human SIRPα v1 ECD (FIGS. 6A and 6B) or human SIRPα v2 ECD (FIGS. 7A and 7B) recombinant protein. After washing, HRP labeled anti-mouse Fc 2nd antibody (Sigma) was added and incubated at 37° C. for 1 hour. Then, 100 μl/well of TMB solution (Biotechnology) was added. After incubation for 15 minutes at room temperature, the reaction was stopped by the addition of 50 μl of 1N HCl. OD 450 nm was read. Blocking ratio was determined by blockade of human CD47 ECD recombinant protein binding to ELISA microplate coated human SIRPα ECD recombinant protein. Other than 005, all antibodies as tested can block interaction between human CD47 and different human SIRPα variants.
(§5) The humanized antibodies were tested for the ability to block CD47 and SIRPα interaction with competitive ELISA assay (refer to methods described in Example 4.2.3.).

[12] = biological target: T8, human SIRPα v2 ECD recombinant protein (tag not given) (human); assay: competitive ELISA, mFc-CD47 ECD on coated SIRPα v2 ECD
T8 construct: extracellular domain; also called ELISA microplate coated human SIRPα v2 ECD
Description: as §4, §5

[13] = biological target: T9, human SIRPβ stably expressed on CHOK1 cells (human, UniProt O00241 30-398); assay: FACS, CHOK1 cells stably expressing human SIRPβ
T9 construct: whole, on cells; also called CHOK1-human SIRPB; CHOK1-hSIRPβ
T9 sequence (O00241 30-398): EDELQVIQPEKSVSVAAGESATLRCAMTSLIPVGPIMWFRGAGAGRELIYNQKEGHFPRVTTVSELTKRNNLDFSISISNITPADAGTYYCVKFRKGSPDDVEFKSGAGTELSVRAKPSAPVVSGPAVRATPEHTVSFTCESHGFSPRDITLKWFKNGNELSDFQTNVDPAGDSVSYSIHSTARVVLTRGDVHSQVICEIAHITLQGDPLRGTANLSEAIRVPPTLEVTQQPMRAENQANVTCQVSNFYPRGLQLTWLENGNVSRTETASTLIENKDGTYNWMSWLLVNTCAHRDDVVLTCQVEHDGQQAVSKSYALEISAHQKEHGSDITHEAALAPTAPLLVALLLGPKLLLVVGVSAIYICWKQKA
Description: as §3

[14] = biological target: T9, human SIRPβ stably expressed on CHOK1 …; assay: FACS, CHOK1-hSIRPβ cells (columns c6 and c7 read as swapped)
Description: as §3

T1 sequence (P78324 31-504): as the sequence (P78324 31-504) above

B1: 042 (antibody, V domains shown)
VH: QIQLVQSGPELKKPGETVKISCRASGYTFTTYGMSWVKQAPGKGLRWMGWINTYSGVSTCADDFKGRFAFSLETSATTAYLQIHNLTNEDTATYFCARDPHSYGNSPAWFPYWGQGTLVTVSA
VL: DIVMTQSQKFMSTTIRDRVSITCKASQNVGISVAWYQQKSGQSPKLLIYSASNRYTGVPDRFTGSGSGTDFTLTISNMQSEDLADYFCQQYSSYPLTFGSGTKLAIK
notes: Mouse monoclonal hybridoma antibody; also called antibody 042; hybridoma antibody 042
- SHP-1 recruitment (% blocking), Test I [1]: 84.8%
- SHP-1 recruitment (% blocking), Test II [1]: 76.1%
- EC50 [2]: 0.2 nM
- EC50 [3]: 0.03 nM
- EC50 [4]: 0.03 nM
- binding result [5]: no binding (tested: 100 nM)
- IC50 [6]: 0.14 nM

B2: 025 (antibody, V domains shown)
VH: EVQLQQSGAELVKPGASVKLSCTASGFNIKDYYMHWVKQRTEQGLEWIGRIDPEDGETKYAPKFQGKATITADTSSNTAYLQLSSLTSEDTAVYYCDRGLAYWGQGTLVTVSA
VL: QIVLTQSPAIMSASPGEKVTLTCSASSSVSSSYLYWYQQKPGSSPKLWIYSTSNLASGVPARFSGSGSGTSYSLTISSMEAEDAASYFCHQWSSYPYTFGGGTKLEIK
notes: Mouse monoclonal hybridoma antibody; also called antibody 025; hybridoma antibody 025
- SHP-1 recruitment (% blocking), Test I [1]: 83.9%
- SHP-1 recruitment (% blocking), Test II [1]: 91.2%
- EC50 [2]: 0.9 nM
- EC50 [3]: 0.04 nM
- EC50 [4]: 0.06 nM
- binding result [5]: no binding (tested: 100 nM)
- IC50 [6]: 0.15 nM

B3: hu025.021 (antibody, V domains shown)
VH: EVQLVQSGAEVKKPGATVKISCKVSGFNIKDYYMHWVQQAPGKGLEWIGRIDPEDAETKYAPKFQGRVTITADTSTNTAYMELSSLRSEDTAVYYCDRGLAYWGQGTLVTVSS
VL: EIVLTQSPATLSLSPGERATLSCSASSSVSSSYLYWYQQKPGQAPKLWIYSTSNLASGIPARFSGSGSGTDYTLTISSLEPEDFAVYYCHQWSSYPYTFGQGTKLEIK
notes: Humanized 025; also called hu025.21
- SHP-1 recruitment blocking, IC50 [7]: 0.1 nM
- SHP-1 recruitment blocking, TOP blocking (%) [7]: 86.3%
- EC50 [8]: 0.21 nM
- TOP MFI [8]: 22100 MFI
- EC50 [9]: 1.08 nM
- TOP MFI [9]: 56400 MFI
- Kd [10]: 3.05 nM
- koff [10]: 0.00183 s⁻¹
- kon [10]: 599000 M⁻¹ s⁻¹
- IC50 [11]: 2.07 nM
- TOP blocking (%) [11]: 97.7%
- IC50 [12]: 1.96 nM
- TOP blocking (%) [12]: 98.3%
- EC50 (read off the curve) [13]: ~0.7 nM
- EC50 [14]: 0.68 nM
- TOP MFI [14]: 72000 MFI

Second part, the binder after the results:

- SHP-1 recruitment blocking, IC50 [7]: 0.1 nM
- SHP-1 recruitment blocking, TOP blocking (%) [7]: 78.8%
- EC50 [8]: 0.2 nM
- TOP MFI [8]: 22700 MFI
- EC50 [9]: 1.05 nM
- TOP MFI [9]: 59400 MFI
- Kd [10]: 2.29 nM
- koff [10]: 0.00123 s⁻¹
- kon [10]: 536000 M⁻¹ s⁻¹
- IC50 [11]: 2.48 nM
- TOP blocking (%) [11]: 97.1%
- IC50 [12]: 2.03 nM
- TOP blocking (%) [12]: 98.3%
- EC50 (read off the curve) [13]: ~0.7 nM
- EC50 [14]: 0.67 nM
- TOP MFI [14]: 73100 MFI
B4: hu025.059 (antibody, V domains shown)
VH: B3 VH with V24A
VL: B3 VL
notes: Humanized 025; also called hu025.59

- SHP-1 recruitment blocking, IC50 [7]: 0.19 nM
- SHP-1 recruitment blocking, TOP blocking (%) [7]: 84.5%
- EC50 [8]: 0.21 nM
- TOP MFI [8]: 20900 MFI
- EC50 [9]: 0.99 nM
- TOP MFI [9]: 53800 MFI
- IC50 [11]: 2.22 nM
- TOP blocking (%) [11]: 97.2%
- IC50 [12]: 1.88 nM
- TOP blocking (%) [12]: 98.3%
- EC50 (read off the curve) [13]: ~0.7 nM
- EC50 [14]: 0.8 nM
- TOP MFI [14]: 69700 MFI
B5: hu025.033 (antibody, V domains shown)
VH: B3 VH with N77D
VL: B3 VL
notes: Humanized 025
